Assay results from patent US20100272689A1, “Protease Having Algicidal Activity, Gene Encoding the Same and Algicidal Formulation Comprising the Same” (KOREA OCEAN RESEARCH & DEVELOPMENT INSTITUTE, priority 2007, published 2010).
Where “and” joins values, the source holds several entries; their conditions need not be identical. Identical values can stand only once.

What was measured:
[1] = Procedure: To observe protein processing of the protease having algicidal activity according to the present invention, analysis of protease activity was performed as the same method of Example 7 except 10476—8 protein (SEQ ID NO: 26) which was reacted at 4° C. for a week, and then that was confirmed by SDS-PAGE (FIG. 8).
gelatin [2] = experiment: Protease activity by electrophoresis on gelatin substrate gel; assay type: biochemical; conditions: refolded protein, FIG. 7
Procedure: Protease activity of proteases obtained according to Example 6 was measured using electrophoresis on gelatin substrate gel [Park, H. I., J. Biol. Chem., 275:20540-20544, 2000].

[3] = tested on: Cochlodinium polykrikoides; experiment: Algicidal activity by cell count after 24 hr (Lugol staining); assay type: cell-based; conditions: 50 μl of protein (100 μg/ml), after 24 hr; for Cell number: ( ): standard deviation
Procedure: Organisms used as host for algicidal bacteria screen are Cochlodinium polykrikoides, Thalassiosira sp., Heterosigma akashiwo, Skeletonema costatum, Alexandrium sp., Gymnodium sp., Chaetoceros cuvisetus. Each algae cell was grown to log phase in F/2 broth (0.075 g NaNO3, 0.005 g NaH2PO4?H2O, 0.030 g Na2SiO3?9H2O, 1 ml F/2 trace metal solution, 1 ml F/2 vitamin solution and 1,000 ml aged seawater) [Stein, Handbook of phycological methods, Cambridge Univ. Press, 1973].
The cultured red tide organisms were diluted in F/2 broth to a final density of 0.05 (excitation wavelength=434 nm, emission wavelength=670 nm)on the fluorescent intensity using fluoro-spectrophotometer (Hitachi, Japan), and then 2.7 ml aliquots were dispensed into several test tubes (110 mm×10 mm) to prepare for the MPN (most probable number) method.
To measure algicidal activity of 10476—7 protein (SEQ ID NO:27), 50 μl of said protein (100 μg/ml) was added to the culture solutions of Cochlodinium polykrikoides, Thalassiosira sp., Heterosigma akashiwo, Skeletonema costatum, Alexandrium sp., Chaetoceros cuvisetus and Gymnodniium sp. which were prepared in Example 2. After 24 hr, said culture solutions were stained with 1% Lugol's iodine solution, and then the cell number was counted. Experimental groups with protease (experimental group 1 and 2) were compared with control group without protease in cell number and the degree of inhibition.
To check algicidal activity of proteins isolated Flavobacterium johnsoniae UW101 (ZP—01247095, SEQ ID NO: 4), Croceibacter atlanticus HTCC2559 (ZP—00951344, SEQ ID NO: 5), Leeuwenhoekiella blandensis MED217 (ZP—01059780, SEQ ID NO: 6) and Kordia algicida KAOT1—11562 (SEQ ID NO: 7), 50 μl of said protein (100 μg/ml) was added to the culture solutions of Cochlodinium polykrikoides, Thalassiosira sp., Heterosigma akashiwo, Skeletonema costatum, Alexandrium sp., Chaetoceros cuvisetus, and Gymnodium sp., which were prepared in Example 2. After 24 hr, said culture solutions were stained with 1% Lugol's iodine solution, and then the cell number was counted.
Experimental groups with protease (experimental group 1 and 2) were compared with control group without protease in cell number and the degree of inhibition.

gelatin [4] = experiment: Protease activity at various temperature and pH; assay type: biochemical
Procedure: 10476—7 protein (SEQ ID NO: 27) containing only mature protein was suspended with SDS in combination with stabilization by using EDTA and resistance to detergent, and refolded by dilution using buffer solution containing 50 mM Tris-HCl, 1 mM EDTA and 1% triton X-100 except SDS, and then protease activity was measured at various temperature and pH according to the method as described above [Park, H. I., J. Biol. Chem., 275:20540-20544, 2000]. The results are shown in FIG. 9 and FIG. 10, respectively.

gelatin [5] = experiment: Protease activity with zinc or calcium ion (gelatin, TCA supernatant); assay type: biochemical; conditions: 0.1% gelatin, pH 8.0, 20° C., 2 hr
Procedure: Also, 5 μg of refolded protein was added to buffer solution containing 0.1% gelatin, 50 mM Tris-HCl (pH 8.0), 100 mM KCl and 1 mM zinc or calcium ion, incubated at 20° C. for 2 hr, and then 5% TCA solution (w/v) was added to the solution, followed by stand for 10 min on ice. After centrifugation for 5 min at 10,000 rpm, the protein was measured using the supernatant. Inhibition of protease activity by metal ions was measured by comparing with control group without metal ion.

B1: 10476—8: protein containing processing peptide and mature protein, without the signal peptide part (protein, listed as Kordia algicida)
chain: VVDEEQDTAIGIPQDVLQKAQSLHFNTFDMQEASFEKPNGKIEEGYMMEGDIFFTRDQLMNMELGGDITSKQYRTNNLVSPGVITIIGYTGNNSNGLTTKMQTGLRWAVDNYNALNLSISFQLTFGTDYQNKDMVVYQVQGGAGGSAGFPSGGNPYKWVKINSGMAPYSNNVHEHVIGHEIGHSIGFRHSDYFSRQSCGQNSNEGSAGVGAIHIPGTPTGWDPTSLMNACFSSSEDGEFNGNDITALNFLY
modifications: KAOT1_10476 of Kordia algicida OT-1 lacking signal peptide
notes: protein containing processing peptide and mature protein, without the signal peptide part
[1]
  Time until turned into mature protease by degradation of processing peptide: 3 days
Gelatin [2]
  Protease activity: showed protease activity

B2: 10476—7: protein containing only mature protein, without signal peptide and processing peptide (protein, listed as Kordia algicida)
chain: QYRTNNLVSPGVITIIGYTGNNSNGLTTKMQTGLRWAVDNYNALNLSISFQLTFGTDYQNKDMVVYQVQGGAGGSAGFPSGGNPYKWVKINSGMAPYSNNVHEHVIGHEIGHSIGFRHSDYFSRQSCGQNSNEGSAGVGAIHIPGTPTGWDPTSLMNACFSSSEDGEFNGNDITALNFLY
modifications: KAOT1_10476 of Kordia algicida OT-1 lacking signal and processing peptide
[3]; experimental group 1
  The degree of inhibition (%): 40.7%
  Cell number: 960(30) cell/ml and 940(60) cell/ml
[3]; experimental group 2
  The degree of inhibition (%): 30.0%
  Cell number: 1040(90) cell/ml and 900(110) cell/ml
Gelatin [4]; FIG. 9
  Temperature of optimal protease activity: about 20 °C
Gelatin [4]; FIG. 10
  pH of optimal protease activity: 7-8
Gelatin [5]; FIG. 11
  Effect of zinc ion on protease activity: inhibition of 10476—7 protein activity by zinc ion was confirmed
Gelatin [5]; FIG. 12
  Calcium ion concentration of maximal protease activity: 80 to 100 mM
Gelatin [2]
  Protease activity: showed protease activity
